# T1: HisMBP-TZAP Znf9-11 (UniProt P10074 521-600)
# T1 sequence: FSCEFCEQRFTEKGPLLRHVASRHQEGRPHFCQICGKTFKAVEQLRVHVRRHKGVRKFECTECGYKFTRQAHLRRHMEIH
# B1: Telo6 (dsDNA)
# DNA 1: GGTCGACTCTAGAGATCGAAGGGTTAGGGTTAGGGTTAGGGTTAGGGTTAGGGTTACGATCCCGGGTACCGAGCTCGA
# DNA 2: TCGAGCTCGGTACCCGGGATCGTAACCCTAACCCTAACCCTAACCCTAACCCTAACCCTTCGATCTCTAGAGTCGACC
# Molecular target: T1, HisMBP-TZAP Znf9-11
# Assay: EMSA
binder,measurement,value
B1,binding result,binds

# Source: PMC5518674
